Experiment [1] deals with rabbit muscle G-actin, biotinylated (rabbit) (UniProt P68135).
For experiment [2], the target named is P. falciparum F-actin, biotinylated (P. falciparum 3D7 (endogenous in merozoites)) (UniProt Q8I4X0). Nature of the experiment: BLI. A general note: Biolayer interferometry detects binding as a change in optical thickness at a sensor tip.
Experiment [3] addresses P. falciparum G-actin, biotinylated (P. falciparum 3D7 (endogenous in merozoites)) (UniProt Q8I4X0). Put plainly: BLI.

As a reminder, the Kd is the free concentration of one partner at which half of the binding sites on the other are occupied at equilibrium, for simple one-to-one binding. Lower therefore signals a tighter complex.

“PfMTRAP cytoplasmic tail domain peptide (residues 452-498)” had an initial rate of polymerization of 2.5 μM pyrene-labelled rabbit actin with 50 μM MTRAP CTD peptide, without aldolase (control without addition 35, bovine serum albumin 34) (fluorescence units min^-1) in experiment [1] of 66. Take “Plasmodium falciparum aldolase (from UniProt P14223 1-369) (enzyme)”: the results for the dissociation constant Kd in experiment [2] and in experiment [3] were 370 nM and 470 nM, respectively. “RH1 cytoplasmic tail domain peptide (residues 2942-2971)” had an initial rate of polymerization of 2.5 μM pyrene-labelled rabbit actin with 50 μM RH1 CTD peptide, without aldolase (control without addition 35, bovine serum albumin 34) (fluorescence units min^-1) in experiment [1] of 69.

The values are drawn from PMC4251702.
